Laboratory results published in the Human Domainome abundance scans (Beltran et al. 2025).
± gives the uncertainty stated by the source.

B1: F-BAR and double SH3 domains protein 1, residues 467 to 528; numbered along this chain, Q86WN1 (parent)
chain: RALPCPAHVVFRYQAGREDELTITEGEWLEVIEEGDADEWVKARNQHGEVGFVPERYLNFPD

Variants of: B1
Experiment: abundance fitness (aPCA) (normalised: wild type 0, dead -1); higher = more abundant; growth selection in yeast, the domain comes from the species named
Conditions: Homo sapiens

Variant	abundance fitness
R17N	0.099 ± 0.13
R17K	0.021 ± 0.077
R17W	-0.346 ± 0.071
R17M	-0.091 ± 0.074
R17S	-0.016 ± 0.06
R17D	-0.173 ± 0.078
E49K	-0.026 ± 0.096
E49V	-0.139 ± 0.066
E49D	-0.118 ± 0.11
E49L	-0.13 ± 0.047
E49S	-0.022 ± 0.052
E49P	-1.05 ± 0.19
C5P	-0.857 ± 0.15
P61D	-0.007 ± 0.099
P61I	0.091 ± 0.12
P61H	-0.249 ± 0.086
P61V	0.001 ± 0.073
G16T	-0.012 ± 0.1
G16A	0.024 ± 0.066
G16K	0.077 ± 0.074
G16F	-0.136 ± 0.083
G16C	0.035 ± 0.087
G16M	0.026 ± 0.071
H8K	-0.257 ± 0.072

Variant	abundance fitness
H8S	-0.479 ± 0.07
H8D	-0.282 ± 0.11
H8V	-0.349 ± 0.068
N59P	-0.977 ± 0.16
N59K	-0.005 ± 0.071
N59C	-0.036 ± 0.093
N59Q	0.018 ± 0.053
N59T	0.006 ± 0.058
N59W	-0.242 ± 0.053
N59S	-0.036 ± 0.042
I23V	-0.014 ± 0.045
I23R	-0.751 ± 0.069
I23Y	-0.958 ± 0.17
I23C	-0.228 ± 0.076
E25T	0.038 ± 0.095
E25S	0.104 ± 0.11
E25Y	0.189 ± 0.26
E25P	-0.069 ± 0.12
E25L	-0.298 ± 0.069
E25M	-0.297 ± 0.2
F52D	-0.431 ± 0.1
F52N	-0.175 ± 0.093
F52T	-0.284 ± 0.079
F52I	-0.152 ± 0.12

Variant	abundance fitness
A37I	-0.026 ± 0.099
A37V	0.052 ± 0.052
A37R	0.141 ± 0.073
A37T	0.014 ± 0.071
A37P	-0.107 ± 0.074
F60W	-0.064 ± 0.051
F60E	-0.561 ± 0.1
F60L	-0.213 ± 0.041
T22E	-0.5 ± 0.11
T22H	-0.494 ± 0.16
T22A	-0.2 ± 0.054
T22F	-0.742 ± 0.12
T22K	-0.686 ± 0.13
T22S	0.069 ± 0.051
T22Q	-0.581 ± 0.12
T22M	-0.652 ± 0.088
W40T	-0.101 ± 0.06
W40A	-0.3 ± 0.076
W40N	-0.33 ± 0.15
W40I	-0.139 ± 0.16
Q46S	-0.04 ± 0.061
Q46A	0.036 ± 0.057
Q46H	-0.163 ± 0.15
Q46T	-0.01 ± 0.062

Variant	abundance fitness
Q46I	-0.142 ± 0.1
Q46C	-0.018 ± 0.099
Q46Y	-0.114 ± 0.092
Q46F	-0.207 ± 0.1
W28D	-0.046 ± 0.1
W28H	0.01 ± 0.1
W28I	0.026 ± 0.086
W28F	0.134 ± 0.086
W28M	-0.024 ± 0.057
N45G	-0.576 ± 0.098
N45A	-0.567 ± 0.1
N45E	-1.08 ± 0.37
N45H	-0.166 ± 0.17
E20F	-0.284 ± 0.078
E20D	-0.306 ± 0.11
E20N	-0.39 ± 0.3
E20I	-0.746 ± 0.18
E20W	-0.934 ± 0.14
P4C	-0.346 ± 0.15
L21S	-0.517 ± 0.093
L21M	-0.198 ± 0.071
L21V	-0.456 ± 0.098
L21T	-1.21 ± 0.47
D62S	0 ± 0.056

Variant	abundance fitness
D62L	-0.151 ± 0.053
D62E	0.114 ± 0.1
D62C	0.111 ± 0.14
D62A	0.012 ± 0.075
D62N	-0.201 ± 0.074
D62F	-0.399 ± 0.11
D62G	-0.057 ± 0.089
E55A	-0.042 ± 0.058
E55H	-0.133 ± 0.1
E55V	0.054 ± 0.05
E55F	-0.165 ± 0.058
E55R	0.038 ± 0.042
E55L	0.059 ± 0.04
L3T	-0.201 ± 0.072
L3M	-0.121 ± 0.085
L3D	-0.486 ± 0.092
L3G	-0.609 ± 0.058
L3Y	0.124 ± 0.075
L3C	-0.121 ± 0.063
L3K	-0.276 ± 0.1
L3E	-0.503 ± 0.12
L3V	-0.439 ± 0.062
D36Y	-0.171 ± 0.12
D36K	0.112 ± 0.075

Variant	abundance fitness
D36S	-0.045 ± 0.053
D36E	0.032 ± 0.072
E27F	-0.795 ± 0.15
E27Y	-0.825 ± 0.29
E27R	-0.762 ± 0.099
E27M	-0.653 ± 0.12
E27A	-0.711 ± 0.16
E27D	-0.047 ± 0.16
V53D	-0.745 ± 0.12
V53P	-0.922 ± 0.18
V53T	-0.868 ± 0.13
V53H	-0.675 ± 0.24
V53Y	-0.466 ± 0.084
V53E	-0.934 ± 0.16
R1F	0.053 ± 0.099
R1D	-0.298 ± 0.19
R1I	-0.052 ± 0.11
R1E	-0.431 ± 0.1
R1H	-0.2 ± 0.16
R1Y	-0.105 ± 0.081
R1L	-0.47 ± 0.1
R1C	-0.544 ± 0.091
Q14N	0.013 ± 0.1
Q14I	-0.261 ± 0.082

Variant	abundance fitness
Q14L	-0.208 ± 0.044
Q14D	0.014 ± 0.086
Q14G	-0.377 ± 0.07
Q14P	-0.636 ± 0.11
T24Y	-0.153 ± 0.096
T24Q	0.051 ± 0.082
T24H	0.036 ± 0.12
T24P	-0.879 ± 0.12
T24D	0.087 ± 0.088
T24L	-0.081 ± 0.046
T24A	-0.117 ± 0.055
T24F	-0.247 ± 0.082
A7N	-0.521 ± 0.19
A7V	-0.454 ± 0.057
A7D	-0.976 ± 0.34
A7M	-0.938 ± 0.15
A7P	-0.788 ± 0.12
A7K	-1.05 ± 0.18
A7E	-0.742 ± 0.32
V10K	-0.094 ± 0.085
V10C	-0.037 ± 0.1
V10G	-0.179 ± 0.049
V10M	0.005 ± 0.079
